Results as given in publication PMC3796545, “Protein-Protein Interactions as a Strategy towards Protein-Specific Drug Design: The Example of Ataxin-1” (PLoS ONE, 2013).
Each block holds one molecule with its values, some of them ahead of it.

Assays:
[1] = biological target: ATX1 AXH (residues A567-K689 of human ATX1) (human); experiment: NMR relaxation (T1, T2, rotational correlation time); free AXH, before addition of the peptide; 27°C, 600 MHz
[2] = biological target: T1, ATX1 AXH (residues A567-K689 of human ATX1) (human); experiment: ITC
T1 chain: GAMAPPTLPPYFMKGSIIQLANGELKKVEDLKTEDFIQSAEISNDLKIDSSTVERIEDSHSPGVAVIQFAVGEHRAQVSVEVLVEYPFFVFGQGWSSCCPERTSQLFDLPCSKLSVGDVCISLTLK

[3] = biological target: ATX1 AXH (residues A567-K689 of human ATX1) (human); experiment: ITC; 0.041 mM AXH in the cell, 0.410 mM peptide in the syringe, 21 aliquots; 25°C; 50 mM Tris-HCl pH 7, 50 mM NaCl, 2 mM TCEP; single-site model; averages of three measurements

- stoichiometry N [1]: 2
Molecule: ATX1 AXH (residues A567-K689 of human ATX1) (domain or fragment)

- Kd [2]: 500 nM
- fold change of Kd against wild-type L-CICp [3]: 10 fold
B1: L-CICp with L40 mutated to alanine (peptide)
peptide: VFPWHSAVPFLAPSQ

- Kd [2]: 30 nM
- Kd [3]: 33 nM
B2: L-CICp (peptide)
peptide: VFPWHSLVPFLAPSQ

- Kd [3]: 8000 nM
B3: CICp (peptide)
peptide: PWHSLVPFLAPSQ

- Kd [2]: 2600 nM
- fold change of Kd against wild-type L-CICp [3]: 100 fold
B4: L-CICp with W37 mutated to alanine (peptide)
peptide: VFPAHSLVPFLAPSQ
